Experimental data taken from patent publication US8444990.

Legend:
[1] = target: soluble Her3 (Her3 extracellular domain) (UniProt P21860); test: EIA, plate coated with sHer3, control IgG at 100 µg/ml, absorbance at 405 nm
[2] = target: soluble Her2 (Her2 extracellular ligand binding domain, residues 1-653, fused to the FLAG sequence) (UniProt P04626); test: EIA, plate coated with sHer2, control IgG at 10 ng/ml, absorbance at 405 nm
[3] = target: soluble Her4 (Her4 receptor extracellular domain, residues 1 to 639) (human) (UniProt Q15303); test: EIA, plate coated with sHer4, control IgG at 100 µg/ml, absorbance at 405 nm
Sequence of UniProt Q15303 (Q15303 other isoform, or with tags, fused parts or gaps limits assumed, form in doubt): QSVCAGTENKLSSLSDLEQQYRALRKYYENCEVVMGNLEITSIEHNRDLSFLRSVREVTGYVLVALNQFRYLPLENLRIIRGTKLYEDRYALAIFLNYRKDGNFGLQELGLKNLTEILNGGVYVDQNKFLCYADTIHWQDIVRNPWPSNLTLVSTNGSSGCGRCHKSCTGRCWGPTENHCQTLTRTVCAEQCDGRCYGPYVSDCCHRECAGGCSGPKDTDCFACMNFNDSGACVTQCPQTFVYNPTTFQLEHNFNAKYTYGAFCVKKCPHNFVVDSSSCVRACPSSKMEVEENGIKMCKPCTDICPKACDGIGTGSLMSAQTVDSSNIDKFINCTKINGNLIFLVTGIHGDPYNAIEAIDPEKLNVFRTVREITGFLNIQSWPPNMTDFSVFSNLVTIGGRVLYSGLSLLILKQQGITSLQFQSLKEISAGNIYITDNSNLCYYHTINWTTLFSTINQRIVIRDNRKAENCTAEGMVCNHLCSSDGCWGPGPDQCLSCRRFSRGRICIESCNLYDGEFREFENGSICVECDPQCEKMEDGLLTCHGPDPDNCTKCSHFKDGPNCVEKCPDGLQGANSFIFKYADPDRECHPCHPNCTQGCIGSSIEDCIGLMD

Sequence of UniProt P21860 (P21860 20-643 limits assumed): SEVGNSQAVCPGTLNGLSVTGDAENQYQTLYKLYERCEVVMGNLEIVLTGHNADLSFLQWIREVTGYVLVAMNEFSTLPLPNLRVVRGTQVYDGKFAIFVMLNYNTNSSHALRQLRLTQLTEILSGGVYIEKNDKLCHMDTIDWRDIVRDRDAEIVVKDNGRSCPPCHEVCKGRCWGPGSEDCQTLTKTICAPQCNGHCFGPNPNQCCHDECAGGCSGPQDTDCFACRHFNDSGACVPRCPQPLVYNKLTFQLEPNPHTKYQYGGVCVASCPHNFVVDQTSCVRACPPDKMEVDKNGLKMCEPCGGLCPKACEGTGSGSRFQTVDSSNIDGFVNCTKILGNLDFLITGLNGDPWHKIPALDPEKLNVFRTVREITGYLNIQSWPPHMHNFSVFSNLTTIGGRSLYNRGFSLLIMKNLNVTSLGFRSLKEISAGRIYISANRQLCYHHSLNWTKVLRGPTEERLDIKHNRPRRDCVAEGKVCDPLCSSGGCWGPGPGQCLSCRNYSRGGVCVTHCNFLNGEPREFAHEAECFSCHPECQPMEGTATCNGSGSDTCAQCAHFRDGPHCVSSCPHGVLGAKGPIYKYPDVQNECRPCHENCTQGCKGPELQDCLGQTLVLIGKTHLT

O.D. of 100 ug/ml [1]: 1.2 O.D.
O.D. of 10 ng/ml [2]: 0.09 O.D.
O.D. of 100 ug/ml [3]: 0.9 O.D.
Substance: Mouse IgG (antibody)
